Source: paper PMC2148137 (The Journal of Cell Biology, 1998)

Biological target: T1, GST–Kic1p full-length fusion (S. cerevisiae, UniProt P38692 1-1080)
T1 sequence (looked up): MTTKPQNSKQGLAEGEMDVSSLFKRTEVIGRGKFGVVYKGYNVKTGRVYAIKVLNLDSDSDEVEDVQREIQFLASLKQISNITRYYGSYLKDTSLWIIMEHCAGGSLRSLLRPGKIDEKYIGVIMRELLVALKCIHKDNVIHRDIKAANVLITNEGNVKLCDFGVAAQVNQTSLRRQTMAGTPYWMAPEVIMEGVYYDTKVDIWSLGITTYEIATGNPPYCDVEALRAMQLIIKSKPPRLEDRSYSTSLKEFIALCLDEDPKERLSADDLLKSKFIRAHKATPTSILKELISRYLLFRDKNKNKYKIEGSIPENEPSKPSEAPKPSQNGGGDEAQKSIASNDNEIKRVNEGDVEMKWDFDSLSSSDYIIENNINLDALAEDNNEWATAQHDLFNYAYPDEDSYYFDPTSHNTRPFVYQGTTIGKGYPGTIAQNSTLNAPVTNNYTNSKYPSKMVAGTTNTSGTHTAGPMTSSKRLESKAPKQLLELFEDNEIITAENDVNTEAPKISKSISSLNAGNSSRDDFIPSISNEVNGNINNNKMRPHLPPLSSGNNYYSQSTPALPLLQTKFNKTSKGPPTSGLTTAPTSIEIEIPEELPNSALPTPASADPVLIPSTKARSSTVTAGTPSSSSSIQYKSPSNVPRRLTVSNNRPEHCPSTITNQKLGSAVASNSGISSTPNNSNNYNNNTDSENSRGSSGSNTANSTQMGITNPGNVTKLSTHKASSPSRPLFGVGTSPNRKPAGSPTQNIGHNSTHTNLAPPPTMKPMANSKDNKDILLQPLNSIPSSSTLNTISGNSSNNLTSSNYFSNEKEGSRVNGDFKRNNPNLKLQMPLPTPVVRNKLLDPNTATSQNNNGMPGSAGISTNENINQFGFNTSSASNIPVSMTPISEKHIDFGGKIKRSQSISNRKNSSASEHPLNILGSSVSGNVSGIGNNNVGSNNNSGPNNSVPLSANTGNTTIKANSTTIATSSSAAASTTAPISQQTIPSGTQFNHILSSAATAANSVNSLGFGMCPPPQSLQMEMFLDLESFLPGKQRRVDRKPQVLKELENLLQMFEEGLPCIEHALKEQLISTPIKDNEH
Test: far-Western, overlay or dot blot

B1: radiolabeled Cdc31p purified from bacteria (natural protein, S. cerevisiae, UniProt P06704 1-161, looked up)
chain: MSKNRSSLQSGPLNSELLEEQKQEIYEAFSLFDMNNDGFLDYHELKVAMKALGFELPKREILDLIDEYDSEGRHLMKYDDFYIVMGEKILKRDPLDEIKRAFQLFDDDHTGKISIKNLRRVAKELGETLTDEELRAMIEEFDLDGDGEINENEFIAICTDS
modifications: radiolabeled
- binding result: binds
